Article PMC4506568, “Targeting a Dynamic Protein–Protein Interaction: Fragment Screening against the Malaria Myosin A Motor Complex” (Chemmedchem, 2014)

Tests used:
[1] = target: Plasmodium falciparum myosin A tail domain interacting protein, residues 61–204 (PfMTIPΔ60) (Plasmodium falciparum) (UniProt Q8I4W8); experiment: ITC; 303 K; cell with about 200 μL of 20 μM PfMTIPΔ60 in buffer A (20 mM HEPES pH 7.5, 50 mM NaCl, 1 mM TCEP); peptide added in 2 μL injections from 250 μM; single site fit; n=1
[2] = target: Plasmodium falciparum myosin A tail domain interacting protein, residues 61–204 (PfMTIPΔ60) (Plasmodium falciparum) (UniProt Q8I4W8); experiment: differential scanning fluorimetry; 5 μM PfMTIPΔ60 with 200 μM peptide in buffer A (20 mM HEPES pH 7.5, 50 mM NaCl, 1 mM TCEP), 10× SYPRO Orange, 15–80 °C

acetylated peptide control3 (acetyl-capped myoA tail from Ser 803) (from UniProt Q8IDR3 803-818)
Kd [1]: 106 nM
Tm of the complex [2]: 54.9 °C

acetylated peptide control1 (acetyl-capped myoA tail from Leu 805) (from UniProt Q8IDR3 805-818)
Tm of the complex [2]: 45.4 °C

acetylated peptide control2 (acetyl-capped myoA tail from Leu 804) (from UniProt Q8IDR3 804-818)
Tm of the complex [2]: 54.5 °C
